The RNAGym collection of RNA variant scans (doi:10.7554/elife.80360)

B1: Hammerhead Ribozyme (parent)
chain: ACCGGAUGUGCUUUCCGGUCUGAUGAGUCCGUGAGGACGAAACAG

Variants of: B1
Assay: self-cleavage, relative activity (ratio to wild type); higher = more cleavage; co-transcriptional

Q: Which self-cleavage does the source give for ACCGGAUGUGCUUUCCGGCCUGAUGAGCCCGUGAGGACGAAACAG [U19C U28C] here?
A: The self-cleavage was 0.572.

Q: Which self-cleavage does the source give for ACCGGAUGUGCUUUCCGGUCUGAUGAGGCCGUGAGGACGAAACAU [U28G G45U] here?
A: Its self-cleavage is 0.527.

Q: With ACCGGAUGUGCUUUCCGGUCUGAUGAGGCCGAGAGGACGAAACAG [U28G U32A] as the variant, how does the self-cleavage read?
A: Its self-cleavage is 0.83.

Q: For ACCGGAUGUGCUUUCCGGUCUGAUGAGGCCGUGACGACGAAACAG [U28G G35C], which self-cleavage is on record?
A: The self-cleavage was 0.562.

Q: With ACCGGAUGUGCUUUCCGGUCUGACGAGUCCGUGAGGAGGAAACAG [U24C C38G] as the variant, how does the self-cleavage read?
A: Its self-cleavage is 0.601.

Q: For ACCGGAUGUGCUUUCCAGUCUGAUGAGUCCGUGAGAACGAAACAG [G17A G36A], which self-cleavage is on record?
A: The self-cleavage was 0.442.

Q: Which self-cleavage does the source give for ACCGGAUGUGCUUUCCGGUCUUAUGAGUCCGUGAGGACUAAACAG [G22U G39U] here?
A: Its self-cleavage is 0.305.

Q: With ACCGGAUGUGCUUUCCGGACUGAUGAGUACGUGAGGACGAAACAG [U19A C29A] as the variant, how does the self-cleavage read?
A: The self-cleavage was 0.332.

Q: With ACCGGUUCUGCUUUCCGGUCUGAUGAGUCCGUGAGGACGAAACAG [A6U G8C] as the variant, how does the self-cleavage read?
A: Its self-cleavage is 0.769.

Q: Which self-cleavage does the source give for ACCGGAUGUGCUUUCCGGUCUGAUGUGUCAGUGAGGACGAAACAG [A26U C30A] here?
A: The self-cleavage was 0.507.

Q: For ACCGGAUGUGCUUUCCGGUCUGAUGAGACCGUGAGGACAAAACAG [U28A G39A], which self-cleavage is on record?
A: Its self-cleavage is 0.422.

Q: For ACCGGAUGUGCUUUCCUGUCAGAUGAGUCCGUGAGGACGAAACAG [G17U U21A], which self-cleavage is on record?
A: Its self-cleavage is 0.591.

Q: Which self-cleavage does the source give for ACCGGAUGUGCUUUCCGGUCUGAUGAGUCCGUGAGGAUGAAACUG [C38U A44U] here?
A: The self-cleavage was 0.648.

Q: With ACCGGGUGUGCUUACCGGUCUGAUGAGUCCGUGAGGACGAAACAG [A6G U14A] as the variant, how does the self-cleavage read?
A: Its self-cleavage is 0.436.

Q: With ACCGGAUGUGCUUUCCGGUCUGGUGAGUCCGUGAGGAGGAAACAG [A23G C38G] as the variant, how does the self-cleavage read?
A: The self-cleavage was 0.311.

Q: With ACCGGAUGUGCUUUCCGGUCUGAUGAGUCCGUAAGGACGAAUCAG [G33A A42U] as the variant, how does the self-cleavage read?
A: Its self-cleavage is 0.27.

Q: With ACCGGAUGUGCUUUCCGAUCUGAAGAGUCCGUGAGGACGAAACAG [G18A U24A] as the variant, how does the self-cleavage read?
A: The self-cleavage was 0.748.

Q: Which self-cleavage does the source give for AGCGGUUGUGCUUUCCGGUCUGAUGAGUCCGUGAGGACGAAACAG [C2G A6U] here?
A: The self-cleavage was 0.321.

Q: With ACCGGAUGUGCUUCCCGGUCUGAUGAGUCCGUGGGGACGAAACAG [U14C A34G] as the variant, how does the self-cleavage read?
A: The self-cleavage was 0.682.

Q: For ACCGGAUGUGCUUUCAGGUCUGAUGAGUCCGUGAGGACGAAACCG [C16A A44C], which self-cleavage is on record?
A: The self-cleavage was 0.563.

Q: With GCCGGAUGUGCUUUCCGGUCUGAUGAGUCCGUGAGGCCGAAACAG [A1G A37C] as the variant, how does the self-cleavage read?
A: Its self-cleavage is 1.64.

Q: For ACCGGAUGUGCUUUCCGGUCAGAUGAGUCCGUGAGGACGAAACAU [U21A G45U], which self-cleavage is on record?
A: The self-cleavage was 0.432.

Q: For ACCGGAUGUGCUUUCCUUUCUGAUGAGUCCGUGAGGACGAAACAG [G17U G18U], which self-cleavage is on record?
A: The self-cleavage was 0.442.

Q: Which self-cleavage does the source give for ACCGGAUGUGAUUUCCGGUCUGAUGAGUCCGUGAAGACGAAACAG [C11A G35A] here?
A: Its self-cleavage is 0.981.

Q: Which self-cleavage does the source give for AACGGAUGUGCUUUCCGGUCUGAUGAGUCCGUGAGGACGAAGCAG [C2A A42G] here?
A: Its self-cleavage is 0.344.

Q: Which self-cleavage does the source give for ACCGGAUAUGCUUUCAGGUCUGAUGAGUCCGUGAGGACGAAACAG [G8A C16A] here?
A: The self-cleavage was 1.2.

Q: Which self-cleavage does the source give for ACCGGAUAUGCUUUCCGGUCUGAUGAGUCCGUGAGGACGAAACGG [G8A A44G] here?
A: The self-cleavage was 1.41.

Q: With ACCGGUUGUGCUUUCCGGUCUGAUGAGUCCGUGAGGACGAACCAG [A6U A42C] as the variant, how does the self-cleavage read?
A: The self-cleavage was 0.238.

Q: With ACCGGAUGUGCUUUCGGGUCUGAUGGGUCCGUGAGGACGAAACAG [C16G A26G] as the variant, how does the self-cleavage read?
A: Its self-cleavage is 0.289.

Q: Which self-cleavage does the source give for ACCGGAUGUGCUUUCCGGUCUGAUGAGUCCGCGAGGACGAAACAG [U32C] here?
A: The self-cleavage was 1.

Q: For ACAGGAUGUGCUUUCCGGUCUGAUGAGUCCGUGAGGACGAAACGG [C3A A44G], which self-cleavage is on record?
A: The self-cleavage was 1.01.

Q: Which self-cleavage does the source give for ACCGGAUGUGCUUUCCGGUCUGUUGAGACCGUGAGGACGAAACAG [A23U U28A] here?
A: The self-cleavage was 0.375.

Q: For ACCGGAUGUGCUUUCCGGUCUGAUGAGUCCGCGAGGACGAAACCG [U32C A44C], which self-cleavage is on record?
A: The self-cleavage was 0.678.

Q: Which self-cleavage does the source give for ACCGGAUUUGCUUUCCGGUCUGAUGCGUCCGUGAGGACGAAACAG [G8U A26C] here?
A: The self-cleavage was 0.596.

Q: For ACCGGAUGUGCUGUCCGGUCUGAUGAGUCCGUGAUGACGAAACAG [U13G G35U], which self-cleavage is on record?
A: Its self-cleavage is 0.873.

Q: Which self-cleavage does the source give for ACCGGAUGUGCUUCCCGGUCUAAUGAGUCCGUGAGGACGAAACAG [U14C G22A] here?
A: The self-cleavage was 0.32.

Q: With ACCGCAUGUGCUUUCCGGUCUGAUGAGUCCGUGAGGACGUAACAG [G5C A40U] as the variant, how does the self-cleavage read?
A: Its self-cleavage is 0.23.

Q: For ACCUGAUGUGCUUUCCGGUCUGAUGAGUCCGUGUGGACGAAACAG [G4U A34U], which self-cleavage is on record?
A: Its self-cleavage is 0.43.

Q: With ACCGGAUGUGCUUUCCGGUCUGAUGAGUGCGUGAGGACGAAACUG [C29G A44U] as the variant, how does the self-cleavage read?
A: The self-cleavage was 0.398.

Q: For ACCGGAUGUGCUUGCCGGUUUGAUGAGUCCGUGAGGACGAAACAG [U14G C20U], which self-cleavage is on record?
A: Its self-cleavage is 0.393.

Q: Which self-cleavage does the source give for ACCGGAUGUGCUUUGCGGUCUGACGAGUCCGUGAGGACGAAACAG [C15G U24C] here?
A: The self-cleavage was 0.818.

Q: With GCCGGAUGUGCUUUCCAGUCUGAUGAGUCCGUGAGGACGAAACAG [A1G G17A] as the variant, how does the self-cleavage read?
A: Its self-cleavage is 0.896.

Q: With ACCGGAUGUGCCUUCCGGUCUGAUGAGUCCGUGAGGACGGAACAG [U12C A40G] as the variant, how does the self-cleavage read?
A: Its self-cleavage is 0.329.

Q: Which self-cleavage does the source give for ACCGGAUGUGCUUUCCGGUGUGAUGAGUCCGUGAGGUCGAAACAG [C20G A37U] here?
A: Its self-cleavage is 0.272.

Q: Which self-cleavage does the source give for CCCGGAUGUGCUUUCCGGUCUGAUGAGUCCGUGAGGCCGAAACAG [A1C A37C] here?
A: The self-cleavage was 0.404.

Q: Which self-cleavage does the source give for ACCGGAUGUGCUUUCCGGUCUGAUAUGUCCGUGAGGACGAAACAG [G25A A26U] here?
A: The self-cleavage was 0.341.

Q: Which self-cleavage does the source give for ACCGGAUGUGCUUUCCGGUCGGAUAAGUCCGUGAGGACGAAACAG [U21G G25A] here?
A: The self-cleavage was 0.349.

Q: For ACCGGAUGUACAUUCCGGUCUGAUGAGUCCGUGAGGACGAAACAG [G10A U12A], which self-cleavage is on record?
A: Its self-cleavage is 0.985.

Q: For ACCAGAUGUGCUUUCGGGUCUGAUGAGUCCGUGAGGACGAAACAG [G4A C16G], which self-cleavage is on record?
A: The self-cleavage was 0.977.

Q: Which self-cleavage does the source give for ACCGGAUGUGCUUUCCGGUCUGAUGAGUCCGUCAGGACGAAAUAG [G33C C43U] here?
A: The self-cleavage was 0.308.

Q: Which self-cleavage does the source give for ACCGGAUCUGCUUUCCGGUCUGAUGAGUCCGUGAGGAUGAAACAG [G8C C38U] here?
A: The self-cleavage was 0.979.

Q: Which self-cleavage does the source give for ACCGGAUGUGCUUGCCGGUCUGAUGGGUCCGUGAGGACGAAACAG [U14G A26G] here?
A: The self-cleavage was 0.223.

Q: For ACCGGAUGUGCUUCCCGGUCUGAAGAGUCCGUGAGGACGAAACAG [U14C U24A], which self-cleavage is on record?
A: The self-cleavage was 0.726.

Q: Which self-cleavage does the source give for ACCGGAUGUGCUUUCCCGUCUGAUGAGUCCGUGAGGACGAAAAAG [G17C C43A] here?
A: The self-cleavage was 0.319.

Q: For ACGGGAUUUGCUUUCCGGUCUGAUGAGUCCGUGAGGACGAAACAG [C3G G8U], which self-cleavage is on record?
A: Its self-cleavage is 0.656.

Q: For ACCUGAUAUGCUUUCCGGUCUGAUGAGUCCGUGAGGACGAAACAG [G4U G8A], which self-cleavage is on record?
A: The self-cleavage was 0.47.

Q: With ACCGGUUGUGCUUUCCGGUCAGAUGAGUCCGUGAGGACGAAACAG [A6U U21A] as the variant, how does the self-cleavage read?
A: The self-cleavage was 0.517.
